The text below walks through data of the supplement of paper PMC11780869.

This data set relates to Bacillus subtilis. The experiment in a line: cleaved RNA product abundance (RNA/gDNA barcode ratio) relative to median wild-type variant (ratio to wild type); higher = more accumulation of the downstream cleavage product. Particulars: cleavage site: cggR-gapA (positions -7 to +36 mutated). An outline of the steps: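 Reporter mRNAs based on truncated aprE or tetM carried barcoded, mutagenized RNase Y cleavage-site windows built from oligos with a 9% error rate and were integrated into the B. subtilis chromosome. Cultures grew in LB at 37°C from OD600 0.0003 to 0.3. Cleaved RNA was gel-selected, reverse transcribed and barcode-sequenced together with genomic DNA barcodes, and UMIs were collapsed. Cleaved product abundance is the per-construct ratio of RNA to gDNA barcodes, scaled to the median of constructs carrying the unmutated site.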

The mark [1] stands for this setting: experiment (reporter, strain, medium): exp 2b: truncated aprE reporter, strain BJT200.
Where [2] appears, read: experiment (reporter, strain, medium): exp 4a: truncated aprE reporter, strain BJT201 with 2% xylose (RNase J1 expressed).
[3] abbreviates: experiment (reporter, strain, medium): exp 6: tetM reporter, strain 168.

Consider “ACAGACGAAGGAGCCGCAAAGAAGTTATTAAGGGATGAATAATCCCTCAACATAAAAATCTCTCACTTATTTAAA”, for which the “cleaved RNA product abundance” value is, setting by setting: under setting [1], 0.242; under setting [2], 0.234.
Turning to “ACAGACGAAGGAGCCGCAAAGAAGTTATTAAGGGATGAATAATCCCTCAACATAAACATCTCTCACTTATTTAAA”, the “cleaved RNA product abundance” value under setting [2] is 0.215.
Consider “ACAGACGAAGGAGCCGCAAAGAAGTTATTAAGGGATGAATAATCCCTCAACATAAATATCTCTCACTTATTTAAA”, for which the “cleaved RNA product abundance” value reads like this: under setting [1], 0.22; under setting [2], 0.345; under setting [3], 0.137.
For the sequence “ACAGACGAAGGAGCCGCAAAGAAGTTATTAAGGGATGAATAATCCCTCAACATACATATCTCTCACTTATTTAAA”, the “cleaved RNA product abundance” value under setting [2] worked out at 0.273.
For the sequence “ACAGACGAAGGAGCCGCAAAGAAGTTATTAAGGGATGAATAATCCCTCAAGATAAATATCTCTCACTTATTTAAA”, the “cleaved RNA product abundance” value is 0.217 under setting [1], 0.256 under setting [2] and 0.289 under setting [3].
As for “ACAGACGAAGGAGCCGCAAAGAAGTTATTAAGGGATGAATAATCCCTCAAGATAAATATTTCTCACTTATTTAAA”, the “cleaved RNA product abundance” value under setting [2] is 0.27.
With “ACAGACGAAGGAGCCGCAAAGAAGTTATTAAGGGATGAATAATCCCTCAATAAAAATATCTCTCACTTATTTAAA”, the “cleaved RNA product abundance” value was 0.172 under setting [1], 0.147 under setting [2] and 0.28 under setting [3].
Regarding “ACAGACGAAGGAGCCGCAAAGAAGTTATTAAGGGATGAATAATCCCTCAATAAAAATGTCTCTCACTTATTTAAA”, the “cleaved RNA product abundance” value under setting [2] is 0.0307.
Regarding “ACAGACGAAGGAGCCGCAAAGAAGTTATTAAGGGATGAATAATCCCTCAATACAAATACCTCTCACTTATTTAAA”, the “cleaved RNA product abundance” value under setting [2] worked out at 0.0316.
In the case of “ACAGACGAAGGAGCCGCAAAGAAGTTATTAAGGGATGAATAATCCCTCAATACAAATATCTCTCACTTATTTAAA”, the “cleaved RNA product abundance” value under setting [1] stood at 0.117, the “cleaved RNA product abundance” value under setting [2] worked out at 0.0683 and the “cleaved RNA product abundance” value under setting [3] was 0.23.
On to “ACAGACGAAGGAGCCGCAAAGAAGTTATTAAGGGATGAATAATCCCTCAATAGAAATACCTCTCACTTATTTAAA”, for which the “cleaved RNA product abundance” value under setting [2] was 0.0433.
For the sequence “ACAGACGAAGGAGCCGCAAAGAAGTTATTAAGGGATGAATAATCCCTCAATAGAAATATCTCTCACTTATTTAAA”, the “cleaved RNA product abundance” value worked out at 0.164 under setting [1], 0.111 under setting [2] and 0.165 under setting [3].
On to “ACAGACGAAGGAGCCGCAAAGAAGTTATTAAGGGATGAATAATCCCTCAATATAAAAATCACTCACTTATTTAAA”, for which the “cleaved RNA product abundance” value under setting [2] amounted to 1.16.
As to “ACAGACGAAGGAGCCGCAAAGAAGTTATTAAGGGATGAATAATCCCTCAATATAAAAATCTCTCACTTATTTAAA”, the “cleaved RNA product abundance” value under setting [1] is 0.906, the “cleaved RNA product abundance” value under setting [2] amounted to 0.794 and the “cleaved RNA product abundance” value under setting [3] was determined as 0.602.
For the sequence “ACAGACGAAGGAGCCGCAAAGAAGTTATTAAGGGATGAATAATCCCTCAATATAAAAATGTCTCACTTATTTAAA”, the “cleaved RNA product abundance” value under setting [2] was determined as 1.17.
On to “ACAGACGAAGGAGCCGCAAAGAAGTTATTAAGGGATGAATAATCCCTCAATATAAAAATTTCTCACTTATTTAAA”, for which the “cleaved RNA product abundance” value under setting [2] is 0.688.
Turning to “ACAGACGAAGGAGCCGCAAAGAAGTTATTAAGGGATGAATAATCCCTCAATATAAAATATCTCTCACTTATTTAA”, the “cleaved RNA product abundance” value under setting [1] worked out at 0.806.
For “ACAGACGAAGGAGCCGCAAAGAAGTTATTAAGGGATGAATAATCCCTCAATATAAACATCTCTCACTTATTTAAA”, the “cleaved RNA product abundance” value is, setting by setting: under setting [1], 0.652; under setting [2], 0.702; under setting [3], 0.847.
With “ACAGACGAAGGAGCCGCAAAGAAGTTATTAAGGGATGAATAATCCCTCAATATAAACATTTCTCACTTATTTAAA”, under setting [1], the “cleaved RNA product abundance” value is 0.752.
Turning to “ACAGACGAAGGAGCCGCAAAGAAGTTATTAAGGGATGAATAATCCCTCAATATAAACCTCTCTCACTTATTTAAA”, under setting [2], the “cleaved RNA product abundance” value was determined as 0.171.
Turning to “ACAGACGAAGGAGCCGCAAAGAAGTTATTAAGGGATGAATAATCCCTCAATATAAAGATCTCTCACTTATTTAAA”, the “cleaved RNA product abundance” value under setting [1] turned out to be 0.666 and the “cleaved RNA product abundance” value under setting [2] came out at 0.627.
As for “ACAGACGAAGGAGCCGCAAAGAAGTTATTAAGGGATGAATAATCCCTCAATATAAATAACTCTCACTTATTTAAA”, the “cleaved RNA product abundance” value came to 0.903 under setting [1], 0.849 under setting [2] and 0.706 under setting [3].
For “ACAGACGAAGGAGCCGCAAAGAAGTTATTAAGGGATGAATAATCCCTCAATATAAATACATCTCACTTATTTAAA”, the “cleaved RNA product abundance” value under setting [2] came to 0.712.
As to “ACAGACGAAGGAGCCGCAAAGAAGTTATTAAGGGATGAATAATCCCTCAATATAAATACCTCTCACTTATTTAAA”, the “cleaved RNA product abundance” value was 0.69 under setting [1], 0.56 under setting [2] and 0.593 under setting [3].
For the sequence “ACAGACGAAGGAGCCGCAAAGAAGTTATTAAGGGATGAATAATCCCTCAATATAAATAGCTCTCACTTATTTAAA”, the “cleaved RNA product abundance” value by setting is: under setting [1], 0.637; under setting [2], 0.616; under setting [3], 0.688.
For the sequence “ACAGACGAAGGAGCCGCAAAGAAGTTATTAAGGGATGAATAATCCCTCAATATAAATATATCTCACTTATTTAAA”, the “cleaved RNA product abundance” value came out at 0.976 under setting [1] and 1.02 under setting [2].
On to “ACAGACGAAGGAGCCGCAAAGAAGTTATTAAGGGATGAATAATCCCTCAATATAAATATCACTCACTTATTTAAA”, for which the “cleaved RNA product abundance” value under setting [2] is 0.917.
For the sequence “ACAGACGAAGGAGCCGCAAAGAAGTTATTAAGGGATGAATAATCCCTCAATATAAATATCTCTACTTATTTAAAG”, under setting [1], the “cleaved RNA product abundance” value was determined as 1.09.
As for “ACAGACGAAGGAGCCGCAAAGAAGTTATTAAGGGATGAATAATCCCTCAATATAAATATCTCTCACTATTTAAAG”, the “cleaved RNA product abundance” value reads like this: under setting [1], 1.28; under setting [2], 1.23.
Regarding “ACAGACGAAGGAGCCGCAAAGAAGTTATTAAGGGATGAATAATCCCTCAATATAAATATCTCTCACTTATTAAAG”, the “cleaved RNA product abundance” value reads like this: under setting [1], 0.94; under setting [2], 0.971.
With “ACAGACGAAGGAGCCGCAAAGAAGTTATTAAGGGATGAATAATCCCTCAATATAAATATCTCTCACTTATTTAAA”, the “cleaved RNA product abundance” value under setting [3] worked out at 1.06.
Take “ACAGACGAAGGAGCCGCAAAGAAGTTATTAAGGGATGAATAATCCCTCAATATAAATATCTCTCACTTATTTAAG”: the “cleaved RNA product abundance” value by setting is: under setting [1], 0.868; under setting [2], 0.646.
Regarding “ACAGACGAAGGAGCCGCAAAGAAGTTATTAAGGGATGAATAATCCCTCAATATAAATATCTCTCACTTTTTAAAG”, under setting [2], the “cleaved RNA product abundance” value came to 0.879.
As for “ACAGACGAAGGAGCCGCAAAGAAGTTATTAAGGGATGAATAATCCCTCAATATAAATATCTCTCATTATTTAAAG”, the “cleaved RNA product abundance” value reads like this: under setting [1], 1.06; under setting [2], 1.05.
Take “ACAGACGAAGGAGCCGCAAAGAAGTTATTAAGGGATGAATAATCCCTCAATATAAATATCTCTCCTTATTTAAAG”: the “cleaved RNA product abundance” value under setting [1] was determined as 0.315.
For the sequence “ACAGACGAAGGAGCCGCAAAGAAGTTATTAAGGGATGAATAATCCCTCAATATAAATATCTCTCGCTTATTTAAA”, the “cleaved RNA product abundance” value under setting [2] was 0.778.
Same read-out and setting: under “ACAGACGAAGGAGCCGCAAAGAAGTTATTAAGGGATGAATAATCCCTCAATATAAATATGACTCACTTATTTAAA” stands 1; under “ACAGACGAAGGAGCCGCAAAGAAGTTATTAAGGGATGAATAATCCCTCAATATAAATATGTCTCACTTATTTAAA”, 0.713.
